Test results taken from patent US20250297232A1, “BACTERIAL MYELOPEROXIDASE-CATALASE AND APPLICATIONS THEREOF” (priority 2022, published 2025).

Legend:
[1] = Heme reconstitution of apo wt and mutated RbMPOs (tryptophan fluorescence quenching); format: binding; conditions: heme reconstitution of apo enzyme; 1 μM enzyme, 50 mM sodium phosphate pH7.5, 25° C.
Experimental: Sample dilutions were performed in a 50 mM pH7.5 sodium phosphate buffer.

[2] = Steady-state kinetics by stopped-flow, NaSCN (hypothiocyanate formation, 240 nm); format: biochemical; conditions: for kss: SCN^− 5 mM, 267 nM RbMPO, H2O2 79 μM
Experimental: (§1) pH- and temperature-dependent studies were carried out for each substrate.
(§2) These temperatures were reached by using a stopped-flow coupled to a cryostat.
(§3) For temperature and pH measurements, RbMPO was set at the same concentration as in the determination of steady state kinetics parameters.

[3] = Steady-state kinetics by stopped-flow, NaCl (Tau-NHCl formation, 253 nm); format: biochemical; conditions: NaCl range (k2), 300 nM of enzyme and 79 μM of H2O2
Experimental: as §1, §2, §3

[4] = Steady-state kinetics by stopped-flow, H2O2 range at fixed (pseudo)-halogen ions; format: biochemical; conditions: wt RbMPO 267 nM
Experimental: For the halides Cl^− and Br^−, the ranges were not performed at halide saturation but at 500 and 100 mM respectively (data not shown).

[5] = Pre-steady state: return of wt RbMPO to its native state, Br^− range; format: biochemical; conditions: H2O2: 20 μM
Experimental: Kinetic parameters under pre-steady-state condition were performed with a Biologic SFM400 stopped-flow at 412 nm, 37° C. and with 50 mM sodium phosphate buffer at pH7.5. […] An exponential linear fit was applied to each kinetic using the following formula: […]
The return of the enzyme to its native state was studied by the impact of increasing concentrations of (pseudo)-halides substrates on compound I (FIG. 9B). […] It is the time difference (s) between the two characteristic steps that allowed the calculation of the values of the Vreturn(μM^−1.s^−1) values: […]

[6] = Catalase activity (absorbance decay at 240 nm, stopped-flow); format: biochemical; conditions: for kss: catalase, 300 nM enzyme, pH 7.5, 500 μM H2O2; for catalase activity, in words: 2 μM wt RbMPO, 37° C.
Experimental: Catalase activity was measured using the stopped-flow set-up, which was configured to measure absorbance decay at 240 nm and at 37° C.

[7] = Peroxidase activity with ABTS; format: biochemical; conditions: ABTS range; 0.5 nM wt RbMPO, 79 μM H2O2, pH5.5, 37° C.
Experimental: The plate reader was configured to run a 10 min kinetics at 430 nm with the following ABTS concentration range: 0, 0.1, 0.2, 0.5, 1, 2, 5, 10, 15, 20, 30 and 40 mM.

[8] = Stability of myeloperoxidase activity of wt RbMPO on storage in different buffers; format: physicochemical; conditions: stored in PBS buffer pH 6.6 at 37° C., up to 60 minutes
Experimental: The enzyme was concentrated at […] for the 4° C. storage condition and at 132.2 μM for the 37° C. storage condition. The MPO activity of the enzyme was assessed at different time points by a standard activity test.
The MPO activity of the enzyme was assessed at different time points by a standard activity test. To do so, the concentrated enzyme was diluted and contacted with H2O2, NaCl and APF.
The value obtained at TO is defined as 100% of the enzymatic (MPO) activity at the temperature tested and all the other activities are calculated from this TO timepoint.

[9] = tested on: E. coli strain ATCC 25922; assay: Microbicidal activity: bacterial growth kinetics in a microplate (A620nm, 16 h); format: cell-based; conditions: for inhibition of bacterial growth: glucose 14 mM, pH 7.4, 37° C.
Experimental: The microbicidal activity of RbMPO towards the E. coli strain ATCC 25922 was evaluated by two independent experiments.
E. coli 25922 were grown on TSB-agar for 16 h at 37° C. One colony is grown in 10 ml of TSB medium under stirring at 190 rpm at 37° C. The optical density (OD) of the bacterial preculture was measured at 620 nm in a spectrophotometer (Ultrospec 10, Biochrom). 25 ml of TSB medium was inoculated to obtain an OD of approximately 0.09. When the OD was between 1 and 2, a dilution in 10 mL of TSB medium was performed to obtain 2×10^6 CFU/ml. Bactericidal tests were performed in 96-well microplates under a final volume of 100 μl with 10^6 CFU/ml. The plate cover was treated with 0.05% TritonX−100 and 20% ethanol to prevent condensation and thus avoid misreading of the wells by the instrument. The solution was allowed to act on the lid for 10 minutes, then removed and dried under a class II biological safety cabinet. Each tested condition was performed at least in triplicate and each experiment was repeated at least 3 times. The kinetics was set to 16 h with a measurement at 620 nm every 15 minutes in a microplate reader (Wallac Victor 2,1420 Multilabel counter) thermostated at 37° C. [shaking duration: 10.0s; shaking speed: fast; shaking diameter: 0.5 mm; shaking type: orbital; measurement time: 0.2s; numbers of replicates: 60; time between replicates: 900 s; label: P620]. […] 5 mM bleach was used as a positive control and bacteria alone was used as a negative control. • By counting colonies on Petri dishes

E. coli ATCC 25922 = assay: Microbicidal activity: counting colonies on Petri dishes; format: cell-based; conditions: 1 h contact with 1.10^6 CFU/mL, 25 mM SCN^−, pH7.4; enzyme alone: wt RbMPO 300 nM or GOxaspniger 25 nM
Experimental: 10 mL of TSB medium (pH7.4) was inoculated with a freshly obtained colony of E. coli ATCC 25922, and the culture was incubated at 37° C. and 190 rpm overnight. In the morning, 25 mL of TSB medium were inoculated with the previous day's pre-culture to obtain an OD620 nm of 0.07 at TO. When the bacterial culture reached the exponential phase, the bacterial solution was diluted 10-fold in TSB in order to reach 1.10^6 CFU/mL. This dilution was then contacted with the enzyme solution for 1 hour (in a final volume of 1 mL). Further dilutions were then made (10^−1, 10^−4, 10−5, 10^−6). 100 μL of these solutions were spread on a Petri dish containing TSB agar medium and placed at 37° C. overnight. The next day, the surviving colonies were counted and the number of CFU/mL was calculated using the formula below: […]

B1: wt RbMPO: novel bacterial heme peroxidase (myeloperoxidase-catalase) of about 78 KDa from Rhodopirellula baltica, SEQ ID NO: 1, produced recombinantly in E. coli (protein, listed as Rhodopirellula baltica)
chain: MLFWSKRTRKHPGRKRRRLRSEQLESRQLLAADFGGYRHNIYDAEDVNDDGRVSAIDALLVINAMTSETSRDENVFTDVNGDGRRSALDALRVINRIERGDVFPIDTSGDEDLNTLLPEMPSEVRSIDGSGNNPNDHLWGSVGQRLIRMAPAAYGDGISTLAGANRPSAREVSNVLSAMNTSQVLNDRGLSAFVYVWGQFIDHDLGLTESDEHGEAIDISVPEGDLWFDPMGSGEAVIPMTRTPIADGTGTSVGNPAQQFNQITAFIDGSMVYGSDAATAERLRTFAGGRLAISDNGLLPMDESGMVIAGDVRASENVGLTAIQTLFVREHNRLADEIFAADPEATDEEIYQRARLVVASLIQSITYNEFLPALLGQRAMDSYRGYDASVNPGIANEFSTAAFRLGHSTLRDEVGFMSNDGRESKDEMELKDAFFHASMLEETGIDSLLKFDASVQAQEIDLAVVDSLRNFLFGPPGAGGLDLVAMNIQRGRDHGLSDYNTTRQAYGLDRVETFDQITGDVELQQKLASLYGTVDNIDLWVGLMAEDHQHDASVGELTGLIIADQFQRTRDGDRFFYKNVLTDSEVESIERSTLADLIERNTSVDGLQENVFFMQVELRGRVILASSIPPNTMPSEVREEEIRGVSGMAIELIDASGKLVDSTVSDQHGNYRFRALSETGDYQVRLSESGEAMDVLVAHGAERIRGLDFIVLA
k2 [1]: 1430 ± 74.4 M⁻¹ s⁻¹
kss ([2]; 37° C., pH 4): 0.7 ± 0.04 s⁻¹
kss ([2]; 37° C., pH 5): 5.4 ± 0.02 s⁻¹
kss ([2]; 37° C., pH 6): 27.0 ± 0.06 s⁻¹
kss ([2]; 37° C., pH 7): 42.8 ± 0.13 s⁻¹
kss ([2]; 37° C., pH 8): 20.4 ± 0.03 s⁻¹
kss ([2]; 37° C., pH 9): 3.1 ± 0.02 s⁻¹
kss ([2]; 37° C., pH 10): 0 ± 0 s⁻¹
kss ([2]; pH 7.5, 10° C.): 5.0 ± 0.01 s⁻¹
kss ([2]; pH 7.5, 20° C.): 37.6 ± 0.10 s⁻¹
kss ([2]; pH 7.5, 30° C.): 56.3 ± 0.10 s⁻¹
kss ([2]; pH 7.5, 37° C.): 63.2 ± 0.11 s⁻¹
kss ([2]; pH 7.5, 40° C.): 55.5 ± 0.14 s⁻¹
kss ([2]; pH 7.5, 50° C.): 56.5 ± 0.14 s⁻¹
kss ([2]; pH 7.5, 60° C.): 67.2 ± 0.22 s⁻¹
substrate specificity ([2]; from steady-state NaSCN, NaBr and NaCl ranges): SCN^−>Br^−>Cl^−
kss/[Cl^−] [3]: 5.46 ± 0.67 M⁻¹ s⁻¹
KMapp ([4]; Br (100 mM)): 0.23 ± 0.21 mM
KMapp ([4]; SCN (5 mM)): 0.12 ± 0.04 mM
kreturn/K1/2 [5]: 607.77 ± 161.51 M⁻¹ s⁻¹
catalase activity kept ([6]; about 50° C. to about 60° C.): more than 80%
catalase activity kept ([6]; between 20° C. and 40° C.): more than 90%
kss ([6]; 10° C.): 2.04 ± 0.01 s⁻¹
kss ([6]; 20° C.): 2.55 ± 0.02 s⁻¹
kss ([6]; 30° C.): 2.75 ± 0.01 s⁻¹
kss ([6]; 37°): 2.78 ± 0.01 s⁻¹
kss ([6]; 40° C.): 2.64 ± 0.01 s⁻¹
kss ([6]; 50° C.): 2.43 ± 0.01 s⁻¹
kss ([6]; 60° C.): 2.39 ± 0.01 s⁻¹
catalase activity, in words ([6]; pH4, 5, 8 and 9): no detectable catalase activity
catalase activity, in words ([6]; pH6 and pH10): negligible
k2 [7]: 10620 M⁻¹ s⁻¹
fall of myeloperoxidase activity [8]: 50%
excess of wt RbMPO over GOxaspniger required for 100% bactericidal effect ([9]; 10 nM GOxaspniger, 25 mM SCN^−, pH 7.4): at least 15 times
inhibition of bacterial growth ([9]; 150 nM wt RbMPO and 10 nM GOxaspniger (15:1 ratio), 25 mM SCN^−): 100%
inhibition of bacterial growth ([9]; 300 nM wt RbMPO and 25 nM GOxaspniger (12:1 ratio), 25 mM SCN^−): 100%
inhibition of bacterial growth ([9]; 300 nM wt RbMPO and 30 nM GOxaspniger (10:1 ratio), 25 mM SCN^−): 100%
bactericidal effect ([9]; 25 mM SCN (pH 7.4), between 10 and 30 nM GOxaspniger, from 300 nM wt RbMPO): 100%
surviving bacteria (E. coli ATCC 25922): 13,850,000±4,454,773 CFU/mL
